Measurements: US20210253718A1, “FRIZZLED5 PROTEIN-BINDING AGENTS” (Modmab Therapeutics Corporation, priority 2016, published 2021)

T1: FZD5 CRD (Homo sapiens, UniProt Q13467)
T1 construct: K29-T156; GPI anchor signal (C); expressed in transfected cells; host or cells: CHO cells, lentiviral pLenti-puro
T1 sequence (Q13467 29-156): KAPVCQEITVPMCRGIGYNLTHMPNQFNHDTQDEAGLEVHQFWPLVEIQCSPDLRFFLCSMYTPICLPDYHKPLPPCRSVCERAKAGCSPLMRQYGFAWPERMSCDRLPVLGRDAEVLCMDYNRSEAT

T2: FZD8 CRD (Homo sapiens, UniProt Q9H461)
T2 construct: K31-D155; GPI anchor signal (C); expressed in transfected cells; host or cells: CHO cells, lentiviral pLenti-puro
T2 sequence (Q9H461 31-155): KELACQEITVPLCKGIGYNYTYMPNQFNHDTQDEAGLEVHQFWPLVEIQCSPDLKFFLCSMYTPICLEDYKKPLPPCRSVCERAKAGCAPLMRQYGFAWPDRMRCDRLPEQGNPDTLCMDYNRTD


Assays:
Test in all cases: Flow cytometry of anti-FZD5 Fab binding to CHO cells overexpressing Frizzled CRD
FZD1 CRD = molecular target: T3, FZD1 CRD (Homo sapiens, UniProt Q9UP38)
T3 construct: D112-P238; GPI anchor signal (C); expressed in transfected cells; host or cells: CHO cells, lentiviral pLenti-puro
Protocol: (§1) Plasmids: pLCKO lentiviral vector used for knockout (TKO) library construction and expression of individual gRNAs was constructed as described previously (Hart et al., 2015). Briefly, single guide RNA (sgRNA) scaffold was amplified from px330 (Addgene 42230) and cloned into pLKO.TRC005 lentiviral vector (Broad Institute, Cambridge, Mass.) using AgeI/EcoRI restriction sites. BfuAI sites were added at the 5′ end of the sgRNA scaffold for cloning the TKO library or individual gRNA target sequences. Lenti Cas9-2A-BsdR vector used to generate Cas9 stable expression cell lines was constructed as described previously (Hart et al., 2015). Briefly, lentiCRISPR pXPR_001 (Addgene 49535) was modified through removal of the sgRNA scaffold region through NdeI/EcoRI digest and blunt ends generation using Large Klenow Fragment (NEB). 2A-puro was replaced with 2A-BsdR by PCR using the NheI/MluI sites. Each of the 10 human Frizzled cysteine rich domains (CRDs) were cloned into the lentiviral expression plasmid pLenti-puro in the following cassette: FZD_CRD-MYC-GPI.
(§2) Flow cytometry: Primary staining of cells was performed by treatment with 200 nM Frizzled profiler Fab. Alexa Fluor 488 AffiniPure F(ab′)2 was used as the secondary antibody (Jackson ImmunoResearch #109-546-097). c-Myc (9E10) IgG1 (primary antibody, Santa Cruz, lot #D0306) and Alexa Fluor 488 IgG (secondary antibody, Life technologies, lot #1458649) were used as controls. Dead cells were excluded by staining with Fixable Viability Dye eFluor 660 (eBioscience, catalogue number 65-0864). All reagents were used as per manufacturer's instructions. Flow cytometry was performed on a BD FACSCanto II flow cytometer (BD Biosciences), and data were analyzed with FlowJo software (FlowJo, LLC).
(§3) To confirm that the FZD5-WNT7B circuit is not driven simply by expression and rule out the possibility of a disconnect between RNA and protein levels for the Wnt receptors in HPAF-II cells, a panel of recombinant Fabs were generated, alternatively referred to herein as ‘Frizzled profiler’, that can detect and discriminate all but one of the ten Frizzled receptors. […] To characterize the binding specificity of these Fabs on cells, a panel of 10 CHO cell lines was generated, each expressing the CRD domain of a different myc-tagged Frizzled family member anchored at the plasma membrane through a GPI anchor (CHO-myc-FZDGPI). Despite the high sequence identity between Frizzled family members (FIG. 7A, FIG. 7B), selective Fabs were identified for FZD4, FZD5, FZD6 and FZD10 as assessed by immunofluorescence and flow cytometry (FIG. 7D and FIG. 8). […] The FZD8 CRD is most homologous to that of FZD5 (FIG. 7B). These Fabs can be used to discriminate expression of FZD1, FZD2, FZD4, FZD5, FZD6, FZD7, FZD8, FZD9 and FZD10 (FIG. 7D and FIG. 8). The ‘Frizzled profiler’ therefore consists of 10 different Fabs that can be used to discriminate expression of 9 different Frizzled family members. The Frizzled profiler was then used to confirm that HPAF-II cells express FZD1, FZD5, FZD6 and possibly FZD8 (FIG. 7E).
(§4) The binding of anti-FZD5 Fabs to cell surface-expressed Frizzled protein was further determined for each member of the Frizzled family via flow cytometry and immunofluorescence analysis of a panel of 10 CHO cell lines, each ectopically over-expressing the extracellular cysteine-rich domain (CRD) of a different Frizzled protein family member.

FZD2 CRD = molecular target: T4, FZD2 CRD (Homo sapiens, UniProt Q14332)
T4 construct: D35-P161; GPI anchor signal (C); expressed in transfected cells; host or cells: CHO cells, lentiviral pLenti-puro
Protocol: as §1, §2, §3, §4

FZD5 CRD = molecular target: T1, FZD5 CRD
Protocol: as §1, §2, §3, §4

FZD8 CRD = molecular target: T2, FZD8 CRD
Protocol: as §1, §2, §3, §4

FZD7 CRD = molecular target: T5, FZD7 CRD (Homo sapiens, UniProt O75084)
T5 construct: D45-S169; GPI anchor signal (C); expressed in transfected cells; host or cells: CHO cells, lentiviral pLenti-puro
Protocol: as §1, §2, §3, §4

| Median fluorescence, Frizzled CRD overexpressed on CHO cells: FZD1 (FZD1 CRD) | Median fluorescence, Frizzled CRD overexpressed on CHO cells: FZD2 (FZD2 CRD) | Median fluorescence, Frizzled CRD overexpressed on CHO cells: FZD5 (FZD5 CRD) | Median fluorescence, Frizzled CRD overexpressed on CHO cells: FZD8 (FZD8 CRD) | Median fluorescence, Frizzled CRD overexpressed on CHO cells: FZD7 (FZD7 CRD) | Molecule |
| --- | --- | --- | --- | --- | --- |
| 3.28 | 4.07 | 32.78 | 11.76 | 2.62 | Fab-2907: anti-FZD5 Fab with antibody variable region Fv-2907; CDR SEQ ID NOs: 35, 36, 46, 85, 122, 159 (antibody, V domains shown) VH: EVQLVESGGGLVQPGGSLRLSCAASGFNIYSSYMHWVRQAPGKGLEWVASISSYSGSTYYADSVKGRFTISADTSKNTAYLQMNSLRAEDTAVYYCARSSWGAYIVSYGFDYWGQGTLVTVSS VL: DIQMTQSPSSLSASVGDRVTITCRASQSVSSAVAWYQQKPGKAPKLLIYSASSLYSGVPSRFSGSRSGTDFTLTISSLQPEDFATYYCQQVGYWWGLITFGQGTKVEIK |
| – | – | 27.63 | 10.00 | – | Fab-2915: anti-FZD5 Fab with antibody variable region Fv-2915; CDR SEQ ID NOs: 35, 36, 54, 93, 130, 166 (antibody, V domains shown) VH: EVQLVESGGGLVQPGGSLRLSCAASGFNIYYYSMHWVRQAPGKGLEWVASIYSSYGYTSYADSVKGRFTISADTSKNTAYLQMNSLRAEDTAVYYCARGYHYYPYYSGLDYWGQGTLVTVSS VL: DIQMTQSPSSLSASVGDRVTITCRASQSVSSAVAWYQQKPGKAPKLLIYSASSLYSGVPSRFSGSRSGTDFTLTISSLQPEDFATYYCQQAYYHSLITFGQGTKVEIK |
